The values that follow come from PMC2529400.

For this assay, the target named is KSHV viral G protein-coupled receptor, Flag-tagged (vGPCR-Flag) (Kaposi's sarcoma-associated herpesvirus (human herpesvirus 8)) (UniProt Q98146).
Chain of UniProt Q98146 (Q98146 whole entry): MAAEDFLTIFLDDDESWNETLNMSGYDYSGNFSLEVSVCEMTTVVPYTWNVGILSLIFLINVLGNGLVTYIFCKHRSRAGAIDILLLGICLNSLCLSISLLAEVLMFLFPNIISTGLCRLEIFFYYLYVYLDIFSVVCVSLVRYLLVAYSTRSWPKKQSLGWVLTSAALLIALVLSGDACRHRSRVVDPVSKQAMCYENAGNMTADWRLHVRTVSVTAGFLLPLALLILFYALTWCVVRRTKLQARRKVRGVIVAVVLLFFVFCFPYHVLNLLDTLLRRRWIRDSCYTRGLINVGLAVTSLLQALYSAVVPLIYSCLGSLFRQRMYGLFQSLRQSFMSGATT

Substance “KSHV K7 small membrane protein, V5-tagged (K7-V5), wild type (natural protein)” registered an AP-1 luciferase reporter activation by vGPCR in 293T cells with K7 co-expressed (about 4.5 fold without K7) of 2 fold, an NF-AT luciferase reporter activation by vGPCR in 293T cells with K7 co-expressed (about 25 fold without K7) of 8 fold and an NF-κB luciferase reporter activation by vGPCR in 293T cells with K7 co-expressed (about 4 fold without K7) of 2 fold.
